We go through 83 variants from the RNAGym collection of RNA variant scans (doi:10.1073/pnas.2313332121).

Fewer inactive variants are shown than the library holds. Some results are limits rather than exact numbers.

B1: TPR 5TU (parent)
chain: GGAUCUUCUCGAUCUAACAAAAAAGACAAAUCUGCCACAAAGCUUGAGAGCAUCUUCGGAUGCAGAGGCGGCAGCCUUCGGUGGCGCGAUAGCGCCAACGUUCUCAACUAUGACACGCAAAACGCGUGCUCCGUUGAAUGGAGUUUAUCAUG

Variants of B1 are the subject of the data set. In words: polymerase ribozyme fitness, log enrichment relative to wild type (log ratio); higher = more active; in vitro selection for triplet polymerase activity. In short, it runs like this:
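In triplicate, a single round of in vitro selection was run on each mutant library, PCR-built and transcribed, covering one subunit of a heterodimeric triplet polymerase ribozyme. Frozen incubation at −7 °C followed annealing with a biotinylated primer, partner subunit and triplets, and extended constructs were then gel-excised, streptavidin-captured and taken through RT-PCR. Fitness is the logarithm of genotype enrichment over wild-type enrichment, from inverse-variance-weighted replicate averages of Illumina-sequenced inputs and outputs. […] only genotypes with ≥10 input reads and ≥1 read per output were kept.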
For A19U G80A, the “polymerase ribozyme fitness (log ratio)” value is -0.164. On to A21C C85G C103U G136A, for which the “polymerase ribozyme fitness (log ratio)” value is -1.18.

For the variant A20U A21G C51U G133C, the “polymerase ribozyme fitness (log ratio)” value was not above -4.2.

For A19U G34A A47U C76A C116U, the “polymerase ribozyme fitness (log ratio)” value is not above -4.2.

For A20G A37U U111G, the “polymerase ribozyme fitness (log ratio)” value is not above -4.2.

In the case of A19U A21U C72G A89C C96G G143A, the “polymerase ribozyme fitness (log ratio)” value is not above -4.2.

As to A20C C54U U78A, the “polymerase ribozyme fitness (log ratio)” value is not above -4.2. The result for A20G A26U reads -2.24; that for A19G A29G C38A U53A C76U G86U C99U, not above -4.2; that for A19U G136C, -3.86. Take A21C C32G A37U A49G C57U C75G G84A A107C A147U: the “polymerase ribozyme fitness (log ratio)” value is not above -4.2. The result for A20G A26U U31G A40G C125G U151C G152A reads not above -4.2. The result for A20U U33C G71A U104A A106G A107G A137C reads not above -4.2. The result for A19G A26U U31C G92A C96G C103U reads not above -4.2; that for A19G A122C G136C A142C, -3.74; that for A20U A23C A47G U77G G84C A97U C118U, not above -4.2.

In the case of A21C C75G C96G C131G, the “polymerase ribozyme fitness (log ratio)” value was -4.13.

For A19G U31G U44A G80A C123G G141C, the “polymerase ribozyme fitness (log ratio)” value is not above -4.2. Regarding A19G G48C G86A C103U C108G, the “polymerase ribozyme fitness (log ratio)” value is not above -4.2. The result for A19G A40U G62U A121U G141U reads -1.46; that for A19U A73U, -0.608.

With A20G U33A U55G C87A G140C, the “polymerase ribozyme fitness (log ratio)” value was not above -4.2. The result for A20C A52G A142G reads -2.02; that for A20U A26C G84U C103G A106C C108G, not above -4.2. Take A20C U31C A41C U55A C79A C99A C125G: the “polymerase ribozyme fitness (log ratio)” value is not above -4.2. The result for A20G G46U G92U reads -0.107; that for A20U A29U G71U G84A, not above -4.2; that for A20U G48U U61G C85G, not above -4.2. The result for A21C G81C G88A A107G reads not above -4.2; that for A20C A115U, -2.36. The result for A19U G25A U61A reads not above -4.2. Take A21C C96U A122C: the “polymerase ribozyme fitness (log ratio)” value is -0.0635. Regarding A19G A28G C38U A49C G58A G65A C76A C93G, the “polymerase ribozyme fitness (log ratio)” value is not above -4.2. The result for A20C C87A reads not above -4.2; that for A20C C87U, -1.36.

With A19U G86U, the “polymerase ribozyme fitness (log ratio)” value is -1.75. The result for A20G G25C G58C A106U reads -3.93; that for A20U A30G A41G U45A U53G C96G, not above -4.2; that for A20C C57U G59C G62C G124A, -0.9.

With A19G C85U, the “polymerase ribozyme fitness (log ratio)” value was -1.3. The result for A19G C85G reads -2.84; that for A20C A52G C79A G133C U146G, not above -4.2. The result for A20G A41G C54U U56A C93G A120G U139G reads -2.99; that for A20U G59A C93A, -4.07; that for A19U U55A C63A A142U U148C, not above -4.2.

As for A19G U78G C87G A98U U101G G126A, the “polymerase ribozyme fitness (log ratio)” value is not above -4.2. The result for A19G C87A C116A G143C U145G G152U reads not above -4.2; that for A20G G124U, -0.645. The result for A20U A41C G50A G141A reads -4.03. The result for A20C A22C C43U G83C reads not above -4.2; that for A19U C35G C43A U56A G58U C85U A113G A122C U151A, not above -4.2. In the case of A20U C35U C95A A97G C99A C105U A138G, the “polymerase ribozyme fitness (log ratio)” value was not above -4.2. The result for A19G G86A reads -1.36. As for A19U A60G C72U G143U, the “polymerase ribozyme fitness (log ratio)” value was not above -4.2. As to A20U C32A C99A A115G A120U, the “polymerase ribozyme fitness (log ratio)” value was -4.05.

For A21C C36A C95G, the “polymerase ribozyme fitness (log ratio)” value is -3.86. Turning to A19G U55A G83A A97G G124A A142C, the “polymerase ribozyme fitness (log ratio)” value was not above -4.2. The result for A20G A22C reads -0.665.

Turning to A19C G94C U102G, the “polymerase ribozyme fitness (log ratio)” value was not above -4.2.

For the variant A20U A22U C57A C96G C125U, the “polymerase ribozyme fitness (log ratio)” value was -3.05. On to A21C C72G G124C, for which the “polymerase ribozyme fitness (log ratio)” value was not above -4.2.

Regarding A20G G59C G94C, the “polymerase ribozyme fitness (log ratio)” value is -0.672. For the variant A20C A52U G68C G84A U134C, the “polymerase ribozyme fitness (log ratio)” value was not above -4.2. The result for A20C U61G reads -1.36; that for A19U C75U U139G G140A U151G, not above -4.2; that for A20C A41C U55C C93G C99U U102G, not above -4.2. For the variant A21C U45A A64G G92A, the “polymerase ribozyme fitness (log ratio)” value is -3.46. With A19U U55A A60G G94U G143U, the “polymerase ribozyme fitness (log ratio)” value was -3.55. The result for A20C A41U G68C G83A G100U A115G C116U C123G reads not above -4.2; that for A19G G94U C96U C116A C125U G133U, not above -4.2. The result for A21C C32G C43U C57A G71U C85A G88C A91C A147U reads not above -4.2. The result for A20G C96U reads -0.654; that for A20G C57U C99A C108U, not above -4.2.

A19U C54A G70A U82A U134G U139A: the “polymerase ribozyme fitness (log ratio)” value was not above -4.2.

Take A20U U45A G124A: the “polymerase ribozyme fitness (log ratio)” value was -3.98. With A21C C69A, the “polymerase ribozyme fitness (log ratio)” value is -1.75. The result for A19U A21U G46C C96A U134A reads not above -4.2.

For the variant A20C A21U U55A G59C C85A G126U, the “polymerase ribozyme fitness (log ratio)” value was -0.602. The result for A20U C54A G92U reads -3.48. The result for A19G G59U C85U C95A reads -1.78.

For A20U G65C C85U A106U, the “polymerase ribozyme fitness (log ratio)” value was not above -4.2.

For A21C A26C C85U A89C G136A G141A, the “polymerase ribozyme fitness (log ratio)” value was -4.04. The result for A20U A28U A64C C79U C93A C114U reads not above -4.2.
